Source: US20140370021A1

Tests used:
[1] = biological target: extracellular region of human R131 FcγRIIa, GST-tagged (human) (UniProt P12318); test: AlphaScreen competition: the antibody displaces biotinylated WT antibody (donor beads) from GST-tagged human R131 FcγRIIa (acceptor beads)
[2] = biological target: FcγRIIIa on human PBMCs, heterozygous V158/F158 (human) (UniProt P08637); test: cell-based or functional assay
[3] = biological target: His-tagged V158 FcγRIIIa (UniProt P08637); test: SPR, receptor immobilized
[4] = biological target: F158 FcγRIIIa as used in SPR (UniProt P08637); test: SPR
[5] = biological target: bacterial protein A (UniProt P38507); test: AlphaScreen competition: the antibody displaces biotinylated WT alemtuzumab (donor beads) from protein A coupled directly to acceptor beads
[6] = biological target: extracellular region of human V158 FcγRIIIa fused with glutathione S-transferase (GST) (human) (UniProt P08637); test: AlphaScreen competition as in Example 2 (biotinylated WT antibody on donor beads, GST-tagged human V158 FcγRIIIa on acceptor beads); Fc variants in the context of trastuzumab
[7] = biological target: extracellular region of human V158 FcγRIIIa fused with glutathione S-transferase (GST) (human) (UniProt P08637); test: AlphaScreen competition

S239D/A330L/I332E (antibody)
IC50 (read off the curve) [1]: 7 nM

alemtuzumab S239D/I332E (antibody)
ADCC EC50 [2]: 3 ng/mL
ADCC log(EC50) [2]: 0.49 log(ng/ml)
IC50 (read off the curve) [1]: 3 nM

alemtuzumab S298A (antibody)
Kd [3]: 52 nM
Kd [4]: 285 nM

WT alemtuzumab (Campath), IgG1, expressed in 293T cells (antibody)
Kd [3]: 68 nM
Kd [4]: 730 nM

S239D/A330Y/I332E (antibody)
IC50 (read off the curve) [1]: 3 nM

alemtuzumab S298A/E333A/K334A (antibody)
Kd [3]: 39 nM
Kd [4]: 156 nM

alemtuzumab I332E (antibody)
IC50 (read off the curve) [5]: 1e-09 2M
Kd [3]: 31 nM
Kd [4]: 72 nM

S239N/I332E (antibody)
IC50 (read off the curve) [6]: 0.7 nM

alemtuzumab Fc variant 192 (V264E/N297D/I332E by Table 60; printed V264I/N297D/I332E in Table 61) (antibody)
FcγRIIIa Fold [7]: 0.05 fold vs WT

alemtuzumab V264I/I332E (antibody)
Kd [3]: 17 nM
Kd [4]: 52 nM
ADCC EC50 [2]: 4 ng/mL
ADCC log(EC50) [2]: 0.6 log(ng/ml)

S239D/S298A/I332E (antibody)
IC50 (read off the curve) [1]: 4 nM

S239N/A330Y/I332E (antibody)
IC50 (read off the curve) [1]: 6 nM

alemtuzumab V264I (antibody)
IC50 (read off the curve) [5]: 1e-09 2M
Kd [3]: 64 nM
Kd [4]: 550 nM
